Measured values as given in paper PMC10091538, “The H2TH-like motif of the Escherichia coli multifunctional protein KsgA is required for DNA binding involved in DNA repair and the suppression of mutation frequencies”.

T1: His-KsgA (1-273) (Escherichia coli, UniProt P06992 1-273)
T1 sequence: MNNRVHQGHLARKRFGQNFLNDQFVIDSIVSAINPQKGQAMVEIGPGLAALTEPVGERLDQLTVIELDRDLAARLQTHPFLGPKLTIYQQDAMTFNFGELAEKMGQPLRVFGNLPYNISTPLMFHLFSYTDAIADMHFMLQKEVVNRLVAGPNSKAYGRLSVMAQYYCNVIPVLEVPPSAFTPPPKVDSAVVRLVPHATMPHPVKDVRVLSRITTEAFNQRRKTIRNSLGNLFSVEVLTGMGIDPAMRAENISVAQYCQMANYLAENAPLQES

T2: His-KsgA (9-273) (Escherichia coli, UniProt P06992 9-273, del1-8)
T2 sequence: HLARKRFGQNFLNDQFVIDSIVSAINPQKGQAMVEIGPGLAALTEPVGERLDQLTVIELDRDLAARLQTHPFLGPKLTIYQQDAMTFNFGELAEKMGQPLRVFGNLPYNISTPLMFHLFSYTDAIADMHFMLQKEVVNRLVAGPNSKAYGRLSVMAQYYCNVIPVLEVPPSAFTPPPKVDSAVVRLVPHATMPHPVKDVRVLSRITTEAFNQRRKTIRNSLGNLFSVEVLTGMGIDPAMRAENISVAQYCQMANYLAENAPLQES

T3: His-KsgA (1-213) (Escherichia coli, UniProt P06992 1-213, del214-273)
T3 sequence: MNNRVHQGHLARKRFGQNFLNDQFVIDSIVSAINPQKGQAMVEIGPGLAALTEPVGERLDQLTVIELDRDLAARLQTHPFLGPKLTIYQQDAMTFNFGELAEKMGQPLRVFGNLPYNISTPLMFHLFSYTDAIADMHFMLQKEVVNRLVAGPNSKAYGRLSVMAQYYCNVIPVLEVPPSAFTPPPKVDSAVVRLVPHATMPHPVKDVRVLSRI


Tests used:
Test in all cases: EMSA; 100 pmol protein, 10 fmol DNA, 500 ng calf thymus DNA; EMSA, 10 ul, 4 C, 60 min: 25 mM Tris-HCl pH 8.0, 500 uM DTT, 500 uM EDTA, 10% glycerol, 25 mM NaCl, 25 mM KCl, 10 uM ZnCl2, 125 uM each dNTP, 4 mM spermidine, 500 ng calf thymus DNA, 10 fmol 32P-dsDNA, 100 pmol protein; 12% PAGE
Conditions in all cases: protein: recombinant; tags: His (pET21a(+), BamHI/XhoI); label: 5'-32P
[1] = target: T1, His-KsgA (1-273)
[2] = target: T2, His-KsgA (9-273)
[3] = target: T3, His-KsgA (1-213)

Binder	binding result [1]	binding result [2]	binding result [3]
5-ohC/C duplex (dsDNA, 5-hydroxycytosine (5-ohC) opposite C) DNA 1: GAACTAGTGCATCCCCCGGGCTGC DNA 2: GCAGCCCGGGGGATCCACTAGTTC	binds	binds	no binding
Tg/C duplex (dsDNA, thymine glycol (Tg) opposite C) DNA 1: GCTGCCCGGGGGTTCCTCTTGTTC DNA 2: GAACAAGAGTAACCCCCGGGCAGC	binds	binds	no binding
5-ohC/G duplex (dsDNA, 5-hydroxycytosine (5-ohC) opposite G) DNA 1: GAACTAGTGCATCCCCCGGGCTGC DNA 2: GCAGCCCGGGGGATGCACTAGTTC	binds	binds	no binding
5-foU/C duplex (dsDNA, 5-formyluracil (5-foU) opposite C) DNA 1: GGTACCTTCAGTCGACC DNA 2: GGTCGACTUAAGGTACC	binds	binds	
5-ohC/A duplex (dsDNA, 5-hydroxycytosine (5-ohC) opposite A) DNA 1: GAACTAGTGCATCCCCCGGGCTGC DNA 2: GCAGCCCGGGGGATACACTAGTTC	binds	binds	no binding
5-ohC/T duplex (dsDNA, 5-hydroxycytosine (5-ohC) opposite T) DNA 1: GAACTAGTGCATCCCCCGGGCTGC DNA 2: GCAGCCCGGGGGATTCACTAGTTC	binds	binds	no binding
